Patent US20060264603A1 (DYAX, published 2006)
Ends that are not written are not given here.

Key:
[1] = target: T1, human plasma Kallikrein (Calbiochem, San Diego, Calif., # 420302) (human, UniProt P03952 20-638); assay: display-phage binding to kallikrein beads; pfu eluted / input (10^10 pfu)
T1 construct: mature; Bought enzyme coupled to agarose beads with Reactigel (6x); also called pKA; human Kallikrein

[2] = target: T1, human plasma Kallikrein (Calbiochem, …); assay: preliminary inhibition measurements; method not described
[3] = target: T1, human plasma Kallikrein (Calbiochem, …); assay: inhibition; method not described
Plasmin [4] = target: T2, Plasmin; assay: inhibition; method not described
T2 construct: Protease target in the specificity test
T2 sequence (P00747 97-580, chain 1 of 2): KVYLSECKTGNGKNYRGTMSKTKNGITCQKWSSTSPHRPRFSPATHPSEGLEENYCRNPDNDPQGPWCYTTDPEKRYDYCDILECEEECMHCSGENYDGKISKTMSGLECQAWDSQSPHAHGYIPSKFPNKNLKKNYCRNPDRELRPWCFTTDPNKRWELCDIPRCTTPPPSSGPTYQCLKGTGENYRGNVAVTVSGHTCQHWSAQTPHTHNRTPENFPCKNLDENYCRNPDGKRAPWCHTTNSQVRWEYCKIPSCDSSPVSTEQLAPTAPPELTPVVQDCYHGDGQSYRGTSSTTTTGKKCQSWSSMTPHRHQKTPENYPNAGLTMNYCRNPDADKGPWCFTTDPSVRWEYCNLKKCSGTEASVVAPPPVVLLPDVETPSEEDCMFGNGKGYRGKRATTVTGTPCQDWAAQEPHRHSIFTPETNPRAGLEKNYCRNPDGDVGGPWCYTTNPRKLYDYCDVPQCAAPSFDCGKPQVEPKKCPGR
T2 sequence (P00747 581-810, chain 2 of 2): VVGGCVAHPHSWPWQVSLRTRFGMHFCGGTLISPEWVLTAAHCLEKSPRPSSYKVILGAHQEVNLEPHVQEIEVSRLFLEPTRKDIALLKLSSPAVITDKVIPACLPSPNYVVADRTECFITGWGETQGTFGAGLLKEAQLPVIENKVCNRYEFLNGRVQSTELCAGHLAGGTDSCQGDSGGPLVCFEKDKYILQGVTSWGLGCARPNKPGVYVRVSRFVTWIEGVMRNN

[5] = target: T1, human plasma Kallikrein (Calbiochem, …); assay: display-phage binding to kallikrein beads; fraction bound relative to parental
Trypsin [6] = target: T3, Trypsin; assay: display-phage binding to protease target; trypsin, two washes
T3 construct: Protease target in the specificity test

[7] = target: T1, human plasma Kallikrein (Calbiochem, …); assay: display-phage binding to protease target
Thrombin = target: T4, Thrombin; assay: display-phage binding to protease target
T4 construct: Protease target in the specificity test

Trypsin [8] = target: T3, Trypsin; assay: display-phage binding to protease target
Plasmin [9] = target: T2, Plasmin; assay: display-phage binding to protease target

T1 sequence (P03952 20-638 limits assumed): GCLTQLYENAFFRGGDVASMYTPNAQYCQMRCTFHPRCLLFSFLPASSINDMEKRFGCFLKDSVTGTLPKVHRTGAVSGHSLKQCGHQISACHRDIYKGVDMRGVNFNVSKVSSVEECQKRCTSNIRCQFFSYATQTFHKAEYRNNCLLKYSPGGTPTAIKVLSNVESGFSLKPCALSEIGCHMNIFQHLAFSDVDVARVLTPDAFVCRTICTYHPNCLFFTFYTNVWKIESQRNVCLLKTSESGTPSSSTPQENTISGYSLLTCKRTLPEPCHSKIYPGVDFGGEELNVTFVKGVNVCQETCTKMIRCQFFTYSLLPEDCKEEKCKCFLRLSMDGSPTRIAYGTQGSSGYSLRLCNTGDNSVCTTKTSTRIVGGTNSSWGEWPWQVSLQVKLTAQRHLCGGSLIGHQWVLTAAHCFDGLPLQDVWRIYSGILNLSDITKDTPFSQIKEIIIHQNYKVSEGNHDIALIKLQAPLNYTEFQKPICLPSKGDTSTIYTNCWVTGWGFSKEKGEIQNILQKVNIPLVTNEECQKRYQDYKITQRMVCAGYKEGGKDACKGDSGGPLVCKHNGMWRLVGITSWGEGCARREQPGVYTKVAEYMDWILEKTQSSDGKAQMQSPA

Binder	Fraction Bound [1]	Ki [2]	Ki ratio against wild-type LACI and BPTI [3]	Ki (Plasmin [4])	Relative Binding [5]	relative binding (compared to the parental phage display) (Trypsin [6])	relative binding (compared to the parental phage display) [7]	relative binding (compared to the parental phage display) (Thrombin)	relative binding (compared to the parental phage display) (Trypsin [8])	relative binding (compared to the parental phage display) (Plasmin [9])
KKII/3#6 (designed binder, LACI-K1 Kunitz domain variant) MHSFCAFKADDGHCKANHQRFFFNIFTRQCEEFSYGGCGGNQNRFESLEECKKMCTRD	0.0087 fraction of input pfu	< 0.0005 µM	> 100 times	10 µM	2070 fold relative to LACI(K1) display-phage					
LACI-K1 (first Kunitz domain of LACI, residues 50-107 of SEQ ID NO:25) (other, also called parental molecule) MHSFCAFKADDGPCKAIMKRFFFNIFTRQCEEFIYGGCEGNQNRFESLEECKKMCTRD	4.2e-06 fraction of input pfu				1 fold relative to LACI(K1) display-phage	1 fold relative to parental phage display	1 fold relative to parental phage display	1 fold relative to parental phage display	1 fold relative to parental phage display	1 fold relative to parental phage display
KKI/3 (a) (designed binder, not fully specified; cysteine pairing not given here, LACI-K1 variant from the first phase of screening; also called KKII/3 (a); clone a) MHSFCAFKADDGRCKGAHLRFFFNIFTRQCEEFIYGGCEGNQNRFESLEECKKMCTRD	3.2e-05 fraction of input pfu				761 fold relative to LACI(K1) display-phage					
KKII/3#5 (designed binder, LACI-K1 Kunitz domain variant) MHSFCAFKADDGHCKASLPRFFFNIFTRQCEEFIYGGCGGNQNRFESLEECKKMCTRD	0.0039 fraction of input pfu				928 fold relative to LACI(K1) display-phage					
KKI/3 (b) (designed binder, not fully specified; cysteine pairing not given here, LACI-K1 variant from the first phase of screening; also called KKII/3 (b); clone b) MHSFCAFKADDGPCKAIHLRFFFNIFTRQCEEFIYGGCEGNQNRFESLEECKKMCTRD	0.0022 fraction of input pfu				524 fold relative to LACI(K1) display-phage					
